Experiments:
Settings in all cases: source organism: Influenza A virus (A/Puerto Rico/8/1934(H1N1))
HLA-A*11:01 = test: IEDB peptide-MHC binding, purified MHC/competitive/radioactivity; ≥ and ≤ were set here for values at or beyond the usual limits of such assays
HLA-A*02:01 = test: as above
HLA-B*07:02 = test: as above
HLA-A*03:01 = test: as above
HLA-A*31:01 = test: as above
HLA-A*68:01 [1] = test: IEDB peptide-MHC binding, purified MHC/competitive/radioactivity; filed as Kd, often an IC50 or EC50 that approximates it; ≥ and ≤ were set here for values at or beyond the usual limits of such assays
HLA-A*68:01 [2] = test: IEDB peptide-MHC binding, purified MHC/competitive/radioactivity; ≥ and ≤ were set here for values at or beyond the usual limits of such assays
HLA-A*33:01 [3] = test: as above
HLA-A*33:01 [4] = test: IEDB peptide-MHC binding, purified MHC/competitive/radioactivity; filed as Kd, often an IC50 or EC50 that approximates it; ≥ and ≤ were set here for values at or beyond the usual limits of such assays

Sequence | IC50 (HLA-A*02:01) [nM] | IC50 (HLA-B*07:02) [nM] | further results
AVGKEFNKLEK |  |  | IC50 (HLA-A*11:01): 130 nM
LLLEVEQEI | 213 |  | 
LPRRSGAAGA |  | 76.3 | 
CLLQSLQQI | 159 |  | 
RMQFSSFTV | 28 |  | 
GPDNGAVAVL |  | 498 | 
VPASRYLTDM |  | 13.6 | 
ILWILDRLFFK |  |  | IC50 (HLA-A*11:01): 21 nM
CIYRRFKYFLK |  |  | IC50 (HLA-A*11:01): 231 nM
LPVRSWSYIV |  | 207 | 
SPGMMMGMF |  | 137 | 
STDTVDTVLEK |  |  | IC50 (HLA-A*11:01): 90 nM
NLYNIRNLHI | 61 |  | 
SPYNSRFESV |  | 41.4 | 
LPSLPGHTA |  | 41 | 
SVRNGTYDYPK |  |  | IC50 (HLA-A*11:01): 43 nM
GPPCSQRSKF |  | 270 | 
FLWHVRKRV | 204 |  | 
NIQFTAVGK |  |  | IC50 (HLA-A*11:01): 182 nM
RMNYYWTLLK |  |  | IC50 (HLA-A*11:01): 2.6 nM

Sequence | IC50 (HLA-A*02:01) [nM] | IC50 (HLA-B*07:02) [nM] | further results
APPKQSRMQF |  | 24 | 
NPALRMKWM |  | 59.5 | 
GTHPSSSAGLK |  |  | IC50 (HLA-A*11:01): 94 nM
SMIEAESSV | 160 |  | 
GPVHFRNQV |  | 71.4 | 
FPSSSYRRPV |  | 20.9 | 
GIAPLQLGK |  |  | IC50 (HLA-A*03:01): 18 nM; IC50 (HLA-A*31:01): 281 nM; IC50 (HLA-A*11:01): 30 nM; Kd (HLA-A*68:01 [1]): 1180 nM
RPWVSFDQNL |  | 397 | 
ALKMTMASV | 225 |  | 
FPNEVGARIL |  | 365 | 
MLSTVLGVSI | 252 |  | 
TMVMELVRMIK |  |  | IC50 (HLA-A*03:01): 124 nM; IC50 (HLA-A*31:01): 1290 nM; IC50 (HLA-A*11:01): 194 nM
TPLGAINSSL |  | 34.9 | 
KLESMGIYQI | 434 |  | 
SPKGVEESSI |  | 215 | 
NPRMFLAMI |  | 10.1 | 
YPKLKNSYV |  | 176 | 
SIIPSGPLK |  |  | IC50 (HLA-A*03:01): 14 nM; IC50 (HLA-A*68:01 [2]): 108 nM; IC50 (HLA-A*31:01): 4290 nM
WMMAMKYPI | 72 |  | 
GIHHPSNSK |  |  | IC50 (HLA-A*11:01): 429 nM

Sequence | IC50 (HLA-A*02:01) [nM] | IC50 (HLA-B*07:02) [nM] | further results
LMDALKLSI | 40 |  | 
LLTEVETPI | 24 |  | 
SLLTEVETYV | 38 |  | 
RPCFWVELI |  | 67.1 | 
GMFNMLSTV | 28 |  | 
IPKQKVAGPL |  | 42.4 | 
GMGWLTIGI | 133 |  | 
RVLSFIKGTK |  |  | IC50 (HLA-A*03:01): 13.8 nM; IC50 (HLA-A*68:01 [2]): 471 nM; IC50 (HLA-A*31:01): 333 nM; IC50 (HLA-A*33:01 [3]): 1320 nM; IC50 (HLA-A*11:01): 72 nM
SLPFQNIHPV | 96 |  | 
LPACVYGPAV |  | 220 | 
RTLDFHDSNVK |  |  | IC50 (HLA-A*03:01): 141 nM; IC50 (HLA-A*68:01 [2]): 2290 nM; IC50 (HLA-A*31:01): 1500 nM; IC50 (HLA-A*11:01): 50 nM; Kd (HLA-A*33:01 [4]): 6300 nM
KTRPILSPLTK |  |  | IC50 (HLA-A*11:01): 120 nM
WILDRLFFK |  |  | IC50 (HLA-A*11:01): 7.6 nM
VLLVSLGAI | 290 |  | 
LILRGSVAHK |  |  | IC50 (HLA-A*11:01): 188 nM
CPKYVRSAKL |  | 344 | 
GPALSINEL |  | 119 | 
KMNIQFTAV | 150 |  | 
APSPYNSRF |  | 19.2 | 
ITNKVNSVIEK |  |  | IC50 (HLA-A*11:01): 90 nM
